Measurements reported in publication PMC6026032.

B1: Cbln1: Cbln1N23Q (protein)
parent chain: MLGVVELLLLGTAWLAGPARGQNETEPIVLEGKCLVVCDSNPTSDPTGTALGISVRSGSAKVAFSAIRSTNHEPSEMSNRTMIIYFDQVLVNIGNNFDSERSTFIAPRKGIYSFNFHVVKVYNRQTIQVSLMLNGWPVISAFAGDQDVTREAASNGVLIQMEKGDRAYLKLERGNLMGGWKYSTFSGFLVFPL
B2: Cbln1: Cbln1N79Q (protein)
parent chain: B1 parent chain
B3: Cbln4: Cbln4N26Q (protein)
parent chain: MGSARRALSVVPAVLLILVLPVWAQNDTEPIVLEGKCLVVCDSNPATDSKGSSSSPLGISVRAANSKVAFSAVRSTNHEPSEMSNKTRIIYFDQILVNVGNFFTLESVFVAPRKGIYSFSFHVIKVYQSQTIQVNLMLNGKPVISAFAGDKDVTREAATNGVLLYLDKEDKVYLKLEKGNLLGGWQYSTFSGFLVFPL
B4: Cbln4: Cbln4N85Q (protein)
parent chain: B3 parent chain
B5: Cbln1: N23Q (protein)
parent chain: B1 parent chain
B6: Cbln1: N79Q (protein)
parent chain: B1 parent chain
B7: Cbln2: N110Q (protein)
parent chain: MPAPGQGPRGPLLSMPGRRGALREPADFGSSLGAVLALLLLLLPACCPVRAQNDTEPIVLEGKCLVVCDSSPSGDGAVTSSLGISVRSGSAKVAFSATRSTNHEPSEMSNRTMTIYFDQVLVNIGNHFDLASSIFVAPRKGIYSFSFHVVKVYNRQTIQVSLMQNGYPVISAFAGDQDVTREAASNGVLLLMEREDKVHLKLERGNLMGGWKYSTFSGFLVFPL
B8: Cbln2: Cbln2N110Q (protein)
parent chain: B7 parent chain
B9: Cbln2: Cbln2N53Q (protein)
parent chain: B7 parent chain

experiment: co-IP from conditioned medium; conditions: glycan lost; control: wild type

Row | Protein | oligomerisation
1 | B1 | no change
2 | B2 | no change
3 | B3 | no change
4 | B4 | no change

experiment: immunoblot of HEK293T conditioned medium; conditions: glycan lost; control: wild type

Row | Protein | expression_or_secretion
5 | B5 | no change
6 | B6 | no change
7 | B7 | no change

experiment: native gel electrophoresis, HA immunoblot; conditions: glycan lost; control: wild type

Row | Protein | oligomerisation
8 | B1 | no change
9 | B2 | no change
10 | B8 | no change
11 | B9 | no change
12 | B3 | changes
13 | B4 | no change
